Data on five molecules can be found in publication PMC2367712.

Experiment in all cases: EMSA
For data set [1], the target named is T1, Lsr2 (Mycobacterium tuberculosis, UniProt P9WIP7 1-112).
Data set [2] has as its target T1, Lsr2. The source holds these as a separate data set.
The target of data set [3] is T1, Lsr2. The source holds these as a separate data set.

Read-outs that look alike come from different tables or passages of the source.

B1: lmo 26 bp fragment 3 (65% AT) (dsDNA)
DNA 1: ATCCATCCGTTATTTACGTCAATTTA
DNA 2: TAAATTGACGTAAATAACGGATGGAT
Take B1: the binding result with Lsr2 [1] is “binds”.

B2: lmo 26 bp fragment 1 (46% AT) (dsDNA)
DNA 1: TGCTGGTCAATTAGGCACTGCGTGAC
DNA 2: GTCACGCAGTGCCTAATTGACCAGCA
For B2, the binding result with Lsr2 [1] is listed as “binds”.

B3: C42 (dsDNA)
DNA 1: AAAAATCTCTAAAAAATCTCTAAAAATCTCTAAAAAATCTCT
DNA 2: AGAGATTTTTTAGAGATTTTTAGAGATTTTTTAGAGATTTTT
Regarding B3, the binding result with Lsr2 [2] was “binds”.

B4: lmo promoter 104 bp (dsDNA)
DNA 1: TGCTGGTCAATTAGGCACTGCGTGACAATTTATCGAGTCGCACAACCGGATCATCCATCCGTTATTTACGTCAATTTAAACGGATGATCTATCCGCTGGCTCCC
DNA 2: GGGAGCCAGCGGATAGATCATCCGTTTAAATTGACGTAAATAACGGATGGATGATCCGGTTGTGCGACTCGATAAATTGTCACGCAGTGCCTAATTGACCAGCA
Turning to B4, the binding result in the data set with Lsr2 [3] was “binds”.

B5: lmo 26 bp fragment 2 (54% AT) (dsDNA)
DNA 1: AATTTATCGAGTCGCACAACCGGATC
DNA 2: GATCCGGTTGTGCGACTCGATAAATT
Regarding B5, the binding result with Lsr2 [1] is given as “binds”.
